Experimental data as given in patent US20070092942A1 (published 2007).

Experiments:
[1] = biological target: T1, HA-tagged Ub-vinylmethyl ester (UniProt P0CG47 1-75); test: 1 uM enzyme with 2 uM HAUbVME, SDS-PAGE silver stain and anti-HA immunoblot
T1 construct: also called HAUbVME; HA-UbVME

[2] = biological target: T1, HA-tagged Ub-vinylmethyl ester; test: HAUbVME labelling, SDS-PAGE and anti-HA immunoblot

Binder | binding result [1] | binding result [2]
EBV205 (enzyme, range 1-205; not shown: N-terminal His-tag from pET28) MSNGDWGQSQRTRGTGPVRGIRTMDVNAPGGGSGGSALRILGTASCNQAHCKFGRFAGIQCVSNCVLYLVKSFLAGRPLTSRPELDEVLDEGARLDALMRQSGILKGHEMAQLTDVPSSVVLRGGGRVHIYRSAEIFGLVLFPAQIANSAVVQSLAEVLHGSYNGVAQFILYICDIYAGAIIIETDGSFYLFDPHCQKDAAPGTP | binds | 
EBV205 C61A (enzyme, range 1-205; also called EBV205 active site mutant (C61A); not shown: N-terminal His-tag from pET28) MSNGDWGQSQRTRGTGPVRGIRTMDVNAPGGGSGGSALRILGTASCNQAHCKFGRFAGIQAVSNCVLYLVKSFLAGRPLTSRPELDEVLDEGARLDALMRQSGILKGHEMAQLTDVPSSVVLRGGGRVHIYRSAEIFGLVLFPAQIANSAVVQSLAEVLHGSYNGVAQFILYICDIYAGAIIIETDGSFYLFDPHCQKDAAPGTP |  | no binding (tested: 2 uM HAUbVME, 1 uM enzyme)
